From the supplement of paper PMC9112550, “Optimization of the antimicrobial peptide Bac7 by deep mutational scanning” (BMC Biology, 2022)

Test system: Escherichia coli TOP10
Experiment: shrunken log2 fold change of peptide-encoding DNA abundance (4.5 h post-induction vs induction); higher = less antimicrobial activity (less host growth inhibition)
Conditions: time post-induction: 4.5 h; library: site-saturation at positions 5, 18, 19, 20
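Note: peptides expressed intracellularly from a pBAD plasmid library in pooled LB shake-flask culture, induced with 0.3% L-arabinose, DNA abundance read by NGS, three biological replicates, DESeq2 with apeglm shrinkage.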

| Sequence | shrunken log2 fold change |
| --- | --- |
| RRIRWRPPRLPRPRPRPHDPPRP | 0.23 |
| RRIRRRPPRLPRPRPRPLPGPRP | 0.59 |
| RRIRVRPPRLPRPRPRPKSMPRP | -0.362 |
| RRIRDRPPRLPRPRPRPYWLPRP | -0.236 |
| RRIRTRPPRLPRPRPRPEMEPRP | 0.0702 |
| RRIRDRPPRLPRPRPRPIQTPRP | 0.00408 |
| RRIRIRPPRLPRPRPRPRNVPRP | -0.247 |
| RRIRHRPPRLPRPRPRPQGSPRP | -0.109 |
| RRIRARPPRLPRPRPRPQFYPRP | -0.183 |
| RRIRTRPPRLPRPRPRPDPAPRP | 0.0522 |
| RRIRQRPPRLPRPRPRPSKSPRP | -0.332 |
| RRIRTRPPRLPRPRPRPMPQPRP | -0.134 |
| RRIRNRPPRLPRPRPRPKTTPRP | 0.118 |
| RRIRLRPPRLPRPRPRPDIGPRP | -0.189 |
| RRIRRRPPRLPRPRPRPTMHPRP | 0.539 |
| RRIRQRPPRLPRPRPRPSDNPRP | -0.394 |
| RRIRDRPPRLPRPRPRPSTPPRP | -0.238 |
| RRIRLRPPRLPRPRPRPDMPPRP | -0.269 |
| RRIRQRPPRLPRPRPRPHKIPRP | 0.00423 |
| RRIRERPPRLPRPRPRPGERPRP | 0.104 |
| RRIRYRPPRLPRPRPRPNQCPRP | -0.352 |
| RRIRLRPPRLPRPRPRPCQNPRP | -0.0404 |
| RRIRFRPPRLPRPRPRPHIWPRP | -0.57 |
| RRIRIRPPRLPRPRPRPRFYPRP | -0.124 |
| RRIRNRPPRLPRPRPRPDSWPRP | -0.125 |

| Sequence | shrunken log2 fold change |
| --- | --- |
| RRIRVRPPRLPRPRPRPYEKPRP | -0.293 |
| RRIRARPPRLPRPRPRPNPHPRP | 0.0863 |
| RRIRNRPPRLPRPRPRPAPQPRP | 0.182 |
| RRIRHRPPRLPRPRPRPRHIPRP | -0.39 |
| RRIRMRPPRLPRPRPRPEEMPRP | 3.07 |
| RRIRTRPPRLPRPRPRPVVTPRP | 0.0483 |
| RRIRSRPPRLPRPRPRPYAMPRP | -0.909 |
| RRIRKRPPRLPRPRPRPWVCPRP | 0.324 |
| RRIRPRPPRLPRPRPRPGSRPRP | 0.144 |
| RRIRDRPPRLPRPRPRPFENPRP | 0.115 |
| RRIRLRPPRLPRPRPRPEYRPRP | -0.0221 |
| RRIRSRPPRLPRPRPRPLGLPRP | 0.204 |
| RRIRNRPPRLPRPRPRPIPMPRP | -0.026 |
| RRIRHRPPRLPRPRPRPCHSPRP | -0.19 |
| RRIRSRPPRLPRPRPRPWMPPRP | -0.433 |
| RRIRFRPPRLPRPRPRPQIFPRP | -0.172 |
| RRIRIRPPRLPRPRPRPQHWPRP | 0.112 |
| RRIRDRPPRLPRPRPRPCAKPRP | 0.244 |
| RRIRQRPPRLPRPRPRPWHKPRP | -0.334 |
| RRIRIRPPRLPRPRPRPNRAPRP | 1.1 |
| RRIRDRPPRLPRPRPRPCKMPRP | -0.0957 |
| RRIRVRPPRLPRPRPRPKGEPRP | -0.0112 |
| RRIRTRPPRLPRPRPRPQHAPRP | -0.0164 |
| RRIRNRPPRLPRPRPRPSQRPRP | -0.0448 |
| RRIRDRPPRLPRPRPRPSMYPRP | -0.105 |

| Sequence | shrunken log2 fold change |
| --- | --- |
| RRIRGRPPRLPRPRPRPDVYPRP | -0.0497 |
| RRIRRRPPRLPRPRPRPKVRPRP | 0.111 |
| RRIRWRPPRLPRPRPRPSPLPRP | -0.26 |
| RRIRERPPRLPRPRPRPFAPPRP | 0.117 |
| RRIRLRPPRLPRPRPRPFTGPRP | -0.204 |
| RRIRDRPPRLPRPRPRPRLDPRP | 0.173 |
| RRIRLRPPRLPRPRPRPVWSPRP | 0.0624 |
| RRIRSRPPRLPRPRPRPFQDPRP | -0.01 |
| RRIRARPPRLPRPRPRPPAYPRP | 0.3 |
| RRIRVRPPRLPRPRPRPYWQPRP | -0.0663 |
| RRIRIRPPRLPRPRPRPVSSPRP | -0.213 |
| RRIRARPPRLPRPRPRPHVWPRP | 0.29 |
| RRIRRRPPRLPRPRPRPFWNPRP | 0.0866 |
| RRIRYRPPRLPRPRPRPTFFPRP | -0.0709 |
| RRIRSRPPRLPRPRPRPSLVPRP | -0.345 |
| RRIRLRPPRLPRPRPRPTFDPRP | -0.173 |
| RRIRWRPPRLPRPRPRPHHMPRP | -0.592 |
| RRIRARPPRLPRPRPRPLTFPRP | -0.203 |
| RRIRPRPPRLPRPRPRPLGQPRP | 0.0471 |
| RRIRERPPRLPRPRPRPTATPRP | 0.259 |
| RRIRRRPPRLPRPRPRPGHSPRP | -0.0814 |
| RRIRRRPPRLPRPRPRPLNTPRP | -0.244 |
| RRIRIRPPRLPRPRPRPPNQPRP | -0.0959 |
| RRIRERPPRLPRPRPRPAYIPRP | -0.168 |
| RRIRTRPPRLPRPRPRPEWFPRP | 0.0821 |
